Results from article doi:10.1101/2024.02.27.582255 (bioRxiv, 2024).
Ends that are not written are not given here. * marks the point of attachment. For = O=C*

Molecular target: the molecule itself
Test: ThT fluorescence + TEM

Row | Protein | binding result
1 | MEFVAKLFKFFKDLLGKFLGNN [deformylated wild-type phenol soluble modulin α3 (df-WT PSMα3)] | binds
2 | For-MEFVAKLFKFFKDLLGKFLGNN [formylated wild-type phenol soluble modulin α3 (f-WT PSMα3)] | binds
